Target: Plasmin
Test: enzyme inhibition

Ki [nM] | Substance
0.23 | Aprotinin
0.17 | Aprotinin R15, S42
